Measurements: patent US20040091475A1 (Chugai, published 2004)
Each block holds one molecule with its values, some of them ahead of it.

Key:
[1] = target: human TPO receptor (MPL) expressed on Ba/F3 cells (human) (UniProt P40238); test: cell-based or functional assay
[2] = target: T1, human TPO receptor (MPL) expressed on Ba/F3 cells (human, UniProt P40238 26-635); test: cell-based or functional assay
T1 sequence (looked up): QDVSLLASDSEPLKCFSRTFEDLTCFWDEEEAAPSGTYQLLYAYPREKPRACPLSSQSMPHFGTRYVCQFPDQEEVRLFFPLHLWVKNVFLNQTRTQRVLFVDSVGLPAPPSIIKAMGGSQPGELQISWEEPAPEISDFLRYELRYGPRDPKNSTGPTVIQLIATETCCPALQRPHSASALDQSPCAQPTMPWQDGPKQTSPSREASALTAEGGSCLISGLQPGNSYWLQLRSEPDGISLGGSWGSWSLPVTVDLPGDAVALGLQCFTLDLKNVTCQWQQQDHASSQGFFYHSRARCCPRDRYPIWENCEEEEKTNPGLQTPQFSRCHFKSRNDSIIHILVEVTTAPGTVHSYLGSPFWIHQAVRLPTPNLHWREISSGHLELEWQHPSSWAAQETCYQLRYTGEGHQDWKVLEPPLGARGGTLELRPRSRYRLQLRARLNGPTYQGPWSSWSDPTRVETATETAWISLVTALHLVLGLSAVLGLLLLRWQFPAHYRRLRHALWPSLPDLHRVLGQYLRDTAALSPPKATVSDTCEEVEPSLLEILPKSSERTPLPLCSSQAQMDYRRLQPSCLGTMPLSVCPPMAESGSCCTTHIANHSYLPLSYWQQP

[3] = target: T2, human Integrin Associated Protein (IAP) expressed on mouse leukemia cell line L1210 (human, UniProt Q08722 19-323); test: flow cytometry on L1210 cells expressing human IAP; COS7 culture supernatant; FITC-labeled anti-human IgG antibody
T2 construct: whole, on cells; also called human IAP; hIAP/L1210

[4] = target: T2, human Integrin Associated Protein (IAP) …; test: as above; remark: listed apart in the source
[5] = target: T2, human Integrin Associated Protein (IAP) …; test: flow cytometry, 10 µg/ml antibody on L1210 cells expressing human IAP (panel B), pCOS1/L1210 cells as control (panel A); FITC-labeled anti-mouse IgG antibody
Method: Flow cytometry was performed using the purified dimer of MABL2-scFv <HL-5> and the purified sc(Fv)₂ in order to evaluate the binding to human Integrin Associated Protein (IAP) antigen. 10 μg/ml of the purified dimer of MABL2-scFv <HL-5>, the purified sc(Fv)₂, the antibody MABL-2 as a positive control or a mouse IgG (Zymed) as a negative control was added to 2×10⁵ cells of the mouse leukemia cell line L1210 expressing human IAP (hIAP/L1210) or the cell line L1210 transformed with pCOS1 (pCOS1/L1210) as a control. After incubating on ice and washing, 10 μg/mL of the mouse anti-FLAG antibody (SIGMA) was added and then the cells were incubated and washed. FITC labeled anti-mouse IgG antibody (BECTON DICKINSON) was added thereto and the cells were incubated and washed again. Then the fluorescence intensity was measured using the FACScan apparatus (BECTON DICKINSON).

[6] = target: T2, human Integrin Associated Protein (IAP) …; test: flow cytometry on L1210 cells expressing human IAP; COS7 culture supernatant; mouse anti-FLAG antibody, then FITC-labeled anti-mouse IgG antibody
Method: Flow cytometry was performed using the culture supernatants of COS7 cells prepared in Example 6.3 (1) to measure the binding of the MABL2-scFVs and sc(Fv)₂ to human Integrin Associated Protein (IAP) antigen. The culture supernatants to be tested or a culture supernatant of COS7 cells as a control was added to 2×10⁵ cells of the mouse leukemia cell line L1210 expressing human IAP. After incubating on ice and washing, 10 μg/mL of the mouse anti-FLAG antibody (SIGMA) was added and then the cells were incubated and washed. Then, the FITC labeled anti-mouse IgG antibody (BECTON DICKINSON) was added thereto and the cells were incubated and washed again. The fluorescence intensity was measured using the FACScan apparatus (BECTON DICKINSON).

T2 sequence (Q08722 19-323): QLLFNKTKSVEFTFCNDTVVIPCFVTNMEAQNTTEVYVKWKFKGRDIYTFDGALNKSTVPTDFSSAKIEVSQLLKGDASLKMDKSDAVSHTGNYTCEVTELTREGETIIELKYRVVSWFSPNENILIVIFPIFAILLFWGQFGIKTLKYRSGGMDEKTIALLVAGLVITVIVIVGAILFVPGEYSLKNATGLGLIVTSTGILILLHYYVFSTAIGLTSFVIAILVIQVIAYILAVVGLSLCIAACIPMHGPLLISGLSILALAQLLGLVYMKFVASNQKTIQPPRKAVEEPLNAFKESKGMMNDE

proliferation of Ba/F3 cells expressing human TPO receptor (BaF/mpl), WST-8; ED50 [1]: 0.027 nM
Molecule: human TPO (R&D Systems) (from UniProt P40225 22-353) (ligand)

TPO-like agonist activity: proliferation of Ba/F3 cells expressing human TPO receptor (BaF/mpl), WST-8; ED50 [2]: 75 nM
B3: reconstructed 12B5 single chain Fv (sc12B5), culture supernatant of COS-7 cells (scFv)
scFv: QVQLVQSGGGLVRPGGSLSLSCAVSGITLRTYGMHWVRQAPGKGLEWVAGISFDGRSEYYADSVQGRFTISRDSSKNTLYLQMNSLRAEDTAVYYCARGAHYGFDIWGQGTMVTVSSGGGGSGGGGSGGGGSDIQMTQSPSTLSASIGDRVTITCRASEGIYHWLAWYQQKPGKAPKLLIYKASSLASGAPSRFSGSGSGTDFTLTISSLQPDDFATYYCQQYSNYPLTFGGGTKLEIKDYKDDDDK

TPO-like agonist activity: proliferation of Ba/F3 cells expressing human TPO receptor (BaF/mpl), WST-8; ED50 [2]: 4440 nM
B4: sc12B5 monomer (scFv)
scFv: QVQLVQSGGGLVRPGGSLSLSCAVSGITLRTYGMHWVRQAPGKGLEWVAGISFDGRSEYYADSVQGRFTISRDSSKNTLYLQMNSLRAEDTAVYYCARGAHYGFDIWGQGTMVTVSSGGGGSGGGGSGGGGSDIQMTQSPSTLSASIGDRVTITCRASEGIYHWLAWYQQKPGKAPKLLIYKASSLASGAPSRFSGSGSGTDFTLTISSLQPDDFATYYCQQYSNYPLTFGGGTKLEIKDYKDDDDK

TPO-like agonist activity: fold against monovalent sc12B5 [2]: ~400 fold
TPO-like agonist activity: proliferation of Ba/F3 cells expressing human TPO receptor (BaF/mpl), WST-8; ED50 [2]: 10.1 nM
B5: sc12B5 dimer (scFv)
scFv: QVQLVQSGGGLVRPGGSLSLSCAVSGITLRTYGMHWVRQAPGKGLEWVAGISFDGRSEYYADSVQGRFTISRDSSKNTLYLQMNSLRAEDTAVYYCARGAHYGFDIWGQGTMVTVSSGGGGSGGGGSGGGGSDIQMTQSPSTLSASIGDRVTITCRASEGIYHWLAWYQQKPGKAPKLLIYKASSLASGAPSRFSGSGSGTDFTLTISSLQPDDFATYYCQQYSNYPLTFGGGTKLEIKDYKDDDDK

binding result [6]: binds
B9: antibody MABL-2 sc(Fv)2 (scFv)
chain: QVQLQQSGPELVKPGASVKMSCKASGYTFANHVIHWVKQKPGQGLEWIGYIYPYNDGTKYNEKFKDKATLTSDKSSTTAYMDLSSLASEDSAVYYCARGGYYTYDDWGQGTTLTVSSGGGGSGGGGSGGGGSDVVMTQSPLSLPVSLGDQASISCRSSQSLVHSNGKTYLHWYLQKPGQSPKLLIYKVSNRFSGVPDRFSGSGSVTDFTLMISRVEAEDLGVYFCSQSTHVPYTFGGGTKLEIKGGGGSGGGGSGGGGSVDSQVQLQQSGPELVKPGASVKMSCKASGYTFANHVIHWVKQKPGQGLEWIGYIYPYNDGTKYNEKFKDKATLTSDKSSTTAYMDLSSLASEDSAVYYCARGGYYTYDDWGQGTTLTVSSGGGGSGGGGSGGGGSDVVMTQSPLSLPVSLGDQASISCRSSQSLVHSNGKTYLHWYLQKPGQSPKLLIYKVSNRFSGVPDRFSGSGSVTDFTLMISRVEAEDLGVYFCSQSTHVPYTFGGGTKLEIKDYKDDDDK
notes: Single chain polypeptide with two H chain V regions and two L chain V regions of MABL-2, FLAG at the C-terminus; eluted at the position of the monomer; also called pCHOM2(Fv)2

More lines, now with the values behind:

B1: antibody 12B5 (IgG) (antibody, V domains shown)
VH: QVQLVQSGGGLVRPGGSLSLSCAVSGITLRTYGMHWVRQAPGKGLEWVAGISFDGRSEYYADSVQGRFTISRDSSKNTLYLQMNSLRAEDTAVYYCARGAHYGFDIWGQGTMVTVSS
VL: DIQMTQSPSTLSASIGDRVTITCRASEGIYHWLAWYQQKPGKAPKLLIYKASSLASGAPSRFSGSGSGTDFTLTISSLQPDDFATYYCQQYSNYPLTFGGGTKLEIK
TPO-like agonist activity: proliferation of Ba/F3 cells expressing human TPO receptor (BaF/mpl), WST-8; ED50 [2]: 29 nM

B2: 12B5Fab fragment (Fab, V domains shown)
VH: QVQLVQSGGGLVRPGGSLSLSCAVSGITLRTYGMHWVRQAPGKGLEWVAGISFDGRSEYYADSVQGRFTISRDSSKNTLYLQMNSLRAEDTAVYYCARGAHYGFDIWGQGTMVTVSS
VL: DIQMTQSPSTLSASIGDRVTITCRASEGIYHWLAWYQQKPGKAPKLLIYKASSLASGAPSRFSGSGSGTDFTLTISSLQPDDFATYYCQQYSNYPLTFGGGTKLEIK
TPO-like agonist activity: proliferation of Ba/F3 cells expressing human TPO receptor (BaF/mpl), WST-8; ED50 [2]: 34700 nM

B6: chimera MABL-1 antibody (antibody, V domains shown)
VH: QVQLQQSGPDLVKPGASVKMSCKASGYTFVNHVMHWVKQKPGQGLEWIGYIYPYNDGTKYNEKFKGKATLTSEKSSSAAYMELSSLASEDSAVYYCARGGYYSYDDWGQGTTLTVSS
VL: DVVMTQTPLSLPVSLGDQASISCRSSQSLLHSKGNTYLQWYLQKPGQSPKLLIYKVSNRFSGVPDRFSGSGSGTDFTLKISRVEAEDLGVYFCSQSTHVPYTSGGGTKLEIK
notes: Mouse MABL-1 V regions cloned into HEF-gamma and HEF-kappa expression vectors (human constant regions); tested as COS7 culture supernatant
binding result [3]: binds

B7: chimera MABL-2 antibody (antibody, V domains shown)
VH: QVQLQQSGPELVKPGASVKMSCKASGYTFANHVIHWVKQKPGQGLEWIGYIYPYNDGTKYNEKFKDKATLTSDKSSTTAYMDLSSLASEDSAVYYCARGGYYTYDDWGQGTTLTVSS
VL: DVVMTQSPLSLPVSLGDQASISCRSSQSLVHSNGKTYLHWYLQKPGQSPKLLIYKVSNRFSGVPDRFSGSGSVTDFTLMISRVEAEDLGVYFCSQSTHVPYTFGGGTKLEIK
notes: Mouse MABL-2 V regions cloned into HEF-gamma and HEF-kappa expression vectors (human constant regions); tested as COS7 culture supernatant
binding result [4]: binds

B8: mouse monoclonal antibody MABL-2 (antibody, V domains shown)
VH: QVQLQQSGPELVKPGASVKMSCKASGYTFANHVIHWVKQKPGQGLEWIGYIYPYNDGTKYNEKFKDKATLTSDKSSTTAYMDLSSLASEDSAVYYCARGGYYTYDDWGQGTTLTVSS
VL: DVVMTQSPLSLPVSLGDQASISCRSSQSLVHSNGKTYLHWYLQKPGQSPKLLIYKVSNRFSGVPDRFSGSGSVTDFTLMISRVEAEDLGVYFCSQSTHVPYTFGGGTKLEIK
notes: Whole mouse antibody from hybridoma MABL-2 (H chain amplified with the MHC-gamma2a primer, kappa L chain); also called MABL-2 (intact)
binding result [5]: binds
